This note sets out measurements from paper PMC8575881, “Structure and activation mechanism of the hexameric plasma membrane H^+-ATPase” (Nature Communications, 2021).

Data set [1] concerns the molecule itself. The data set can be described thus: SEC + native gel or EMSA; Superdex 200 10/300 in 20 mM HEPES pH 7.4, 150 mM NaCl; native gel electrophoresis. On the technique in general: In EMSA bound probe runs differently from free probe, usually more slowly.
Data set [2] deals with the molecule itself. The data set can be described thus: SEC + native gel or EMSA; Superose 6 10/300 Increase in 20 mM HEPES pH 7.4, 150 mM NaCl, 0.003% LMNG, 0.0003% CHS, 1 mM MgCl2; native PAGE 4-20%, Tris-glycine pH 8.8.
Data set [3] deals with the molecule itself. The data set can be described thus: SEC + native gel or EMSA; gel filtration of Pma1-ΔC22 by the protocol of wild-type Pma1; fractions 10-16 ml on native PAGE.

B1: SUMO-tagged helix-i (C-terminal 22 residues of Pma1) with an N-terminal 6xHis-SUMO tag and TEV site (domain or fragment, S. cerevisiae, UniProt P05030 897-918, looked up)
chain: TRSVEDFMAAMQRVSTQHEKET
notes: Pma1, S. cerevisiae, helix-i, the C-terminal 22 amino acids (T897-T918); A TEV protease cleavage site lies between the 6xHis-SUMO tag and the peptide; also called C-terminal helix-I peptide; C-tail helix-i; source: E. coli Rosetta (DE3), pET28a, purified (Ni-beads, Superdex 200 gel filtration); not shown: His6, N-terminal, kept; SUMO, N-terminal, kept
Take B1: the binding result in data set [1] is recorded as “binds”.

B2: S. cerevisiae plasma membrane H+-ATPase Pma1, full length, with a C-terminal triple FLAG epitope (enzyme, UniProt P05030 1-918, looked up)
chain: MTDTSSSSSSSSASSVSAHQPTQEKPAKTYDDAASESSDDDDIDALIEELQSNHGVDDEDSDNDGPVAAGEARPVPEEYLQTDPSYGLTSDEVLKRRKKYGLNQMADEKESLVVKFVMFFVGPIQFVMEAAAILAAGLSDWVDFGVICGLLMLNAGVGFVQEFQAGSIVDELKKTLANTAVVIRDGQLVEIPANEVVPGDILQLEDGTVIPTDGRIVTEDCFLQIDQSAITGESLAVDKHYGDQTFSSSTVKRGEGFMVVTATGDNTFVGRAAALVNKAAGGQGHFTEVLNGIGIILLVLVIATLLLVWTACFYRTNGIVRILRYTLGITIIGVPVGLPAVVTTTMAVGAAYLAKKQAIVQKLSAIESLAGVEILCSDKTGTLTKNKLSLHEPYTVEGVSPDDLMLTACLAASRKKKGLDAIDKAFLKSLKQYPKAKDALTKYKVLEFHPFDPVSKKVTAVVESPEGERIVCVKGAPLFVLKTVEEDHPIPEDVHENYENKVAELASRGFRALGVARKRGEGHWEILGVMPCMDPPRDDTAQTVSEARHLGLRVKMLTGDAVGIAKETCRQLGLGTNIYNAERLGLGGGGDMPGSELADFVENADGFAEVFPQHKYRVVEILQNRGYLVAMTGDGVNDAPSLKKADTGIAVEGATDAARSAADIVFLAPGLSAIIDALKTSRQIFHRMYSYVVYRIALSLHLEIFLGLWIAILDNSLDIDLIVFIAIFADVATLAIAYDNAPYSPKPVKWNLPRLWGMSIILGIVLAIGSWITLTTMFLPKGGIIQNFGAMNGIMFLQISLTENWLIFITRAAGPFWSSIPSWQLAGAVFAVDIIATMFTLFGWWSENWTDIVTVVRVWIWSIGIFCVLGGFYYEMSTSEAFDRLMNGKPMKEKKSTRSVEDFMAAMQRVSTQHEKET
notes: Plasma membrane H+-ATPase Pma1, S. cerevisiae, 918-residue protein, full length; Co-purified with endogenous lipids; residues 1-110 are disordered in the structures; The FLAG tag is not reported to be removed; also called Pma1-FL; wild-type Pma1; source: endogenous, tagged in the genome of yeast strain BY4742
For orientation: stoichiometry N means the number of molecules, sites or subunits per partner or assembly. Turning to B2, the “stoichiometry N” value in data set [2] came to 6.

B3: Pma1-ΔC22, helix-i truncated Pma1 with a C-terminal FLAG tag (domain or fragment, S. cerevisiae, UniProt P05030 1-896, looked up)
chain: MTDTSSSSSSSSASSVSAHQPTQEKPAKTYDDAASESSDDDDIDALIEELQSNHGVDDEDSDNDGPVAAGEARPVPEEYLQTDPSYGLTSDEVLKRRKKYGLNQMADEKESLVVKFVMFFVGPIQFVMEAAAILAAGLSDWVDFGVICGLLMLNAGVGFVQEFQAGSIVDELKKTLANTAVVIRDGQLVEIPANEVVPGDILQLEDGTVIPTDGRIVTEDCFLQIDQSAITGESLAVDKHYGDQTFSSSTVKRGEGFMVVTATGDNTFVGRAAALVNKAAGGQGHFTEVLNGIGIILLVLVIATLLLVWTACFYRTNGIVRILRYTLGITIIGVPVGLPAVVTTTMAVGAAYLAKKQAIVQKLSAIESLAGVEILCSDKTGTLTKNKLSLHEPYTVEGVSPDDLMLTACLAASRKKKGLDAIDKAFLKSLKQYPKAKDALTKYKVLEFHPFDPVSKKVTAVVESPEGERIVCVKGAPLFVLKTVEEDHPIPEDVHENYENKVAELASRGFRALGVARKRGEGHWEILGVMPCMDPPRDDTAQTVSEARHLGLRVKMLTGDAVGIAKETCRQLGLGTNIYNAERLGLGGGGDMPGSELADFVENADGFAEVFPQHKYRVVEILQNRGYLVAMTGDGVNDAPSLKKADTGIAVEGATDAARSAADIVFLAPGLSAIIDALKTSRQIFHRMYSYVVYRIALSLHLEIFLGLWIAILDNSLDIDLIVFIAIFADVATLAIAYDNAPYSPKPVKWNLPRLWGMSIILGIVLAIGSWITLTTMFLPKGGIIQNFGAMNGIMFLQISLTENWLIFITRAAGPFWSSIPSWQLAGAVFAVDIIATMFTLFGWWSENWTDIVTVVRVWIWSIGIFCVLGGFYYEMSTSEAFDRLMNGKPMKEKKS
notes: Plasma membrane H+-ATPase Pma1, S. cerevisiae, lacking helix-i, the last 22 residues (T897-T918) of the 918-residue protein; also called Pma1-△C22; source: S. cerevisiae BY4742 transformed with the PRS423 vector; purified as wild-type Pma1 (anti-FLAG M2, gel filtration)
As for B3, the binding result in data set [3] is given as “binds”.
